{"source": "patent US20080274096", "proteins": {"B1": {"name": "Recombinant human Neprilysin (R&D Systems) (protein)", "chain": "YDDGICKSSDCIKSAARLIQNMDATTEPCTDFFKYACGGWLKRNVIPETSSRYGNFDILRDELEVVLKDVLQEPKTEDIVAVQKAKALYRSCINESAIDSRGGEPLLKLLPDIYGWPVATENWEQKYGASWTAEKAIAQLNSKYGKKVLINLFVGTDDKNSVNHVIHIDQPRLGLPSRDYYECTGIYKEACTAYVDFMISVARLIRQEERLPIDENQLALEMNKVMELEKEIANATAKPEDRNDPMLLYNKMTLAQIQNNFSLEINGKPFSWLNFTNEIMSTVNISITNEEDVVVYAPEYLTKLKPILTKYSARDLQNLMSWRFIMDLVSSLSRTYKESRNAFRKALYGTTSETATWRRCANYVNGNMENAVGRLYVEAAFAGESKHVVEDLIAQIREVFIQTLDDLTWMDAETKKRAEEKALAIKERIGYPDDIVSNDNKLNNEYLELNYKEDEYFENIIQNLKFSQSKQLKKLREKVDKDEWISGAAVVNAFYSSGRNQIVFPAGILQPPFFSAQQSNSLNYGGIGMVIGHEITHGFDDNGRNFNKDGDLVDWWTQQSASNFKEQSQCMVYQYGNFSWDLAGGQHLNGINTLGENIADNGGLGQAYRAYQNYIKKNGEEKLLPGLDLNHKQLFFLNFAQVWCGTYRPEYAVNSIKTDVHSPGNFRIIGTLQNSAEFSEAFHCRKNSYMNPEKKCRVW"}}, "key": {"[1]": {"target": "amyloid β peptide1-40 in guinea pig plasma, Q60495"}, "[2]": {"target": "amyloid β peptide1-42 in guinea pig plasma, Q60495"}, "[3]": {"target": "Amyloid β1-40 peptide (Bachem)"}}, "note": "Entries after “also recorded” stand apart in the source; their conditions may differ."}
{"protein": "B1", "values": [{"measurement": "degradation of Aβ1-40 in guinea pig plasma (ELISA)", "setting": "[1]", "value": "Neprilysin degrades Aβ1-40 and Aβ1-42 in a time-dependent manner; also recorded: Neprilysin degrades Aβ1-40 in a dose dependent manner"}, {"measurement": "degradation of Aβ1-42 in guinea pig plasma (ELISA)", "setting": "[2]", "value": "Neprilysin degrades Aβ1-40 and Aβ1-42 in a time-dependent manner"}, {"measurement": "Amyloid β1-40 peptide degradation (percentage of peptide left, electrochemiluminescence immunoassay)", "setting": "[3]", "value": "degraded 88% of Amyloid β1-40 peptide (1 nM) after 3 hours incubation at 37 °C"}]}
